The values that follow come from paper PMC3564914, “Transcriptome analysis of bitter acid biosynthesis and precursor pathways in hop (Humulus lupulus)” (BMC Plant Biology, 2013).

As a reminder, the Km is the concentration of substrate that gives half-maximal velocity. Broadly, the Vmax is the rate approached at saturating substrate.

Holding throughout (experiment): purified protein
Holding throughout (type): biochemical, Humulus lupulus

Substrate in data set [1]: CC[C@H](C)C(=O)C(=O)O
The conditions noted are these: anabolic direction, 2 mM glutamate, 50 μM PLP, 100 mM ammonium chloride, Tris HCl pH 8.5, 22°C.

Substrate in data set [2]: CC(C)[C@H](N)C(=O)O
The conditions noted are these: catabolic direction, 2 mM 2-oxoglutarate, 50 μM PLP, Tris HCl pH 8.5, 22°C.

Substrate in data set [3]: CC(C)CC(=O)C(=O)O
The conditions noted are these: anabolic direction, 2 mM glutamate, 50 μM PLP, 100 mM ammonium chloride, Tris HCl pH 8.5, 22°C.

Substrate in data set [4]: CC(C)C[C@H](N)C(=O)O
The conditions noted are these: catabolic direction, 2 mM 2-oxoglutarate, 50 μM PLP, Tris HCl pH 8.5, 22°C.

Substrate in data set [5]: CC[C@H](C)[C@H](N)C(=O)O
The conditions noted are these: catabolic direction, 2 mM 2-oxoglutarate, 50 μM PLP, Tris HCl pH 8.5, 22°C.

Substrate in data set [6]: N[C@@H](CCC(=O)O)C(=O)O
The conditions noted are these: anabolic direction, 0.5 mM ketoisovalerate, 50 μM PLP, 100 mM ammonium chloride, Tris HCl pH 8.5, 22°C.

Substrate in data set [7]: CC(C)C(=O)C(=O)O
The conditions noted are these: anabolic direction, 2 mM glutamate, 50 μM PLP, 100 mM ammonium chloride, Tris HCl pH 8.5, 22°C.

Substrate in data set [8]: O=C(O)CCC(=O)C(=O)O
The conditions noted are these: catabolic direction, 2 mM leucine, 50 μM PLP, Tris HCl pH 8.5, 22°C.

B1: HlBCAT2 (Humulus lupulus) (protein)
chain: NATLSDTYSETVELADIDWDNLGFGFLPTDYMYNMKCAQGESFSNGELQRFGNIELSPSAGVLNYGQGLFEGLKAYRKEDGNILLFRPEENALRMRLGAERMCMPSPTVDQFVDAVKATVLANKRWIPPVGKGSLYIRPLLMGSGAVLGLAPAPEYTFLIYVSPVGNYFKEGVAPIHLIVEDNLHRATPGGTGGVKTIGNYAAVLKAQSAAKEQGYSDVLYLDCVHKKYLEEVSSCNIFVVKGNLIFTPAIKGTILPGITRKSIIDVARTLGFQVEERLVHVDELLDADEVFCTGTAVVVSPVGSITYHGERVPYNEGGVGAVSQQLYSALTRLQMGFIKDNMNWTVELS
notes: N-terminal vector His tag (pHIS8/GW), E. coli BL21(DE3) Rosetta2 pLysS, Talon purified
B1: the Michaelis constant (Km) came out at 160 ± 11.63 µM in data set [1]; 130 ± 27.74 µM in data set [2]; 120 ± 11.43 µM in data set [3]; 280 ± 69.56 µM in data set [4]; 250 ± 41.07 µM in data set [5]; 690 ± 88.51 µM in data set [6]. Moreover, the Km in data set [7] came out at 200 ± 11.72 µM; in data set [8] it was 210 ± 58.86 µM. The maximal velocity (Vmax) in data set [1] was 84.7 µmol/min/mg; in data set [2], 23.3 µmol/min/mg; in data set [3], 119 µmol/min/mg; in data set [4] it was 43.4 µmol/min/mg; in data set [5], 88.1 µmol/min/mg; in data set [6] it was 136 µmol/min/mg. Further, the maximum rate (Vmax) in data set [7] was 96.4 µmol/min/mg; in data set [8] it was 36.9 µmol/min/mg.

B2: HlBCAT1 (Humulus lupulus) (protein)
chain: SSTSLAKSSLKQSCELSCKSNTEPSNMDWDKLGFKLMPTDYVYSMKCSNEGNFEQGRLELHGNIELSPAAAVLNYGQGIFEGTKAYRKEDGSLLLFRPDQNGVRMRIGAERMCMPSPSVDQFVDAVKQTAIANRRWVPPSGKGSLYIRPLLMGTGAVLGVAPAPQYTFLAYASPVGNYFKEGLAPLRLYVEDEFDRASPGGTGFVKTIGNYSRCLAALSRAKNKGFSDVLFLDSVHKKYVEELSSCNIFIVQGNQISTPAANGTILSGVTRSSIIEIARDHGFKVEERKIAVDELMEAEEVFCTGTAVGVASVGSITYHNKRVEFKTGSQSVSQKFYSTLIGIQTGVVEDKKGWIVEID
notes: as for B1
On to B2, for which the Km stood at 99 ± 10.75 µM in data set [1]; 340 ± 90.94 µM in data set [2]; 35 ± 3.27 µM in data set [3]; 40 ± 9.20 µM in data set [4]; 230 ± 26.94 µM in data set [5]; 720 ± 55.59 µM in data set [6]. In addition, the figures for the Km in data set [7] and in data set [8] were 99 ± 6.53 µM and 30 ± 5.39 µM, respectively. In addition, the Vmax is 2.95 µmol/min/mg in data set [1]; 12.6 µmol/min/mg in data set [2]; 4.5 µmol/min/mg in data set [3]; 4.84 µmol/min/mg in data set [4]; 19.4 µmol/min/mg in data set [5]; 5.59 µmol/min/mg in data set [6]. Besides, the results for the maximal velocity (Vmax) in data set [7] and in data set [8] were 4.23 µmol/min/mg and 4.5 µmol/min/mg, respectively.
